Data published in patent US20210032351A1 (XDCEXPLORER SHANGHAI, published 2021).
“And” between values parts separate entries of the source, which are not always exact repeats. Identical values can stand only once. Like-named read-outs stand apart in the source and are kept apart here. Ends that are not written are not given here. * marks the point of attachment. Biotin = O=C1N[C@H]2[C@H](CS[C@H]2CCCCC(=O)*)N1

Tests used:
pep05 = biological target: T1, pep05 (cysteine pairing not given here); test: peptide dot matrix ELISA
T1 peptide: KGNYVVTDHGSCVRACK(Biotin)

pep06 = biological target: T2, pep06 (cysteine pairing not given here); test: peptide dot matrix ELISA
T2 peptide: GNYVVTDHGSCVRACGK(Biotin)

pep07 = biological target: T3, pep07 (cysteine pairing not given here); test: peptide dot matrix ELISA
T3 peptide: NYVVTDHGSCVRACGAK(Biotin)

pep13 = biological target: T4, pep13 (cysteine pairing not given here); test: peptide dot matrix ELISA
T4 peptide: HGSCVRACGADSYEMEK(Biotin)

pep14 = biological target: T5, pep14 (cysteine pairing not given here); test: peptide dot matrix ELISA
T5 peptide: GSCVRACGADSYEMEEK(Biotin)

pep15 = biological target: T6, pep15 (cysteine pairing not given here); test: peptide dot matrix ELISA
T6 peptide: SCVRACGADSYEMEEDK(Biotin)

pep20 = biological target: T7, pep20 (cysteine pairing not given here); test: peptide dot matrix ELISA
T7 peptide: CGADSYEMEEDGVRKCK(Biotin)

pep21 = biological target: T8, pep21; test: peptide dot matrix ELISA
T8 peptide: GADSYEMEEDGVRKCKK(Biotin)

pep04 [1] = biological target: T9, pep04; test: peptide dot matrix ELISA
T9 sequence (peptide, C-terminal K(Biotin)): KKGNYVVTDHGSCVRAK

pep19 = biological target: T10, pep19; test: peptide dot matrix ELISA
T10 sequence (peptide, C-terminal K(Biotin)): ACGADSYEMEEDGVRKK

[2] = biological target: human wild-type EGFR protein on the cell surface (human) (UniProt P00533); test: FACS on CHOk1-EGFR cells
[3] = biological target: human wild-type EGFR protein on the cell surface (human) (UniProt P00533); test: FACS on A431 tumor cells
[4] = biological target: human EGFRvIII-hFc protein (human) (UniProt P00533); test: ELISA, EGFRvIII-hFc coated
[5] = biological target: human EGFRvIII-hFc protein (human) (UniProt P00533); test: ELISA, EGFRvIII-hFc coated; remark: listed apart in the source
[6] = biological target: human EGFRvIII protein on the cell surface (human) (UniProt P00533); test: FACS on CHOk1-EGFRvIII cells
[7] = biological target: human EGFRvIII protein on the cell surface (human) (UniProt P00533); test: FACS on U87MG-EGFRvIII cells
[8] = biological target: human wild-type EGFR protein on the cell surface (human) (UniProt P00533); test: FACS on normal human primary hepatocytes
[9] = biological target: T11, human EGFR protein (wild-type), on cells (human, UniProt P00533 25-1210); test: FACS on CHOK-EGFR cells
T11 construct: whole, on cells; transfected on CHO-K1 cells; endogenous on the human cell lines; the cell is named under assay; also called wild-type EGFR; hEGFR

[10] = biological target: T12, human EGFRvIII-hFc protein (human, UniProt P00533 25-645); test: ELISA, coated EGFRvIII-hFc
T12 construct: extracellular domain; made in HEK293 cells, purified on protein A; also called immunogen A; hFc-tagged EGFRvIII protein; not shown: human IgG Fc fragment (hFc) of the pCpC vector
Description: The plate is incubated for 2 hours at 37° C., and then washed 3 times with the plate washing solution [PBS+0.01% (v/v) Tween20]. The plate is added with an HRP (horseradish peroxidase) labeled secondary antibody (purchased from Sigma), incubated at 37° C. for 2 hours, and then washed 3 times with the plate washing solution [PBS+0.01% (v/v) Tween20]. The plate is added with 100 μl of TMB substrate/well, incubated for 30 minutes at room temperature, and then added with 100 μl of stopping solution (1.0N HCl)/well. A450 nm value is read using an ELISA plate reader (SpectraMax 384plus, purchased from Molecular Device), and the results are shown in FIG. 11 and table 19.

[11] = biological target: T13, human EGFRvIII protein, full length, on transfected cells (human, UniProt P00533 25-1210); test: FACS on CHOK-EGFRvIII cells
T13 construct: whole, on cells; stably transfected CHO-K1, U87MG and HEK293(F) cells; also called hEGFRvIII; mutant EGFRvIII protein

[12] = biological target: T13, human EGFRvIII protein, full length, on …; test: FACS on U87MG-EGFRvIII cells, Alexa 488 secondary antibody, mean fluorescence intensity
Description: The preparation of U87MG-EGFRvIII required for FACS detection is as described in the preparation of the immunogen B in example 1. Normal human primary hepatocytes are purchased from BioreclamationIVT, and A431 tumor cells are purchased from ATCC. […] The cells are washed twice with the HBSS buffer and are counted, and then the cells are diluted with the HBSS buffer to 2×10⁶ cells/ml, added with 1% goat serum blocking solution, with the percentage being the mass percentage, and incubated on ice for 30 minutes, and then centrifugally washed twice with the HBSS buffer. […] The plate is centrifugally washed twice with the FACS buffer, added with 100 μL/well of a 1:1000 diluted fluorescence (Alexa 488) labeled secondary antibody (purchased from Invitrogen), and incubated on ice for 1 hour. […] The cells are resuspended in 100 μL of the FACS buffer, and the results are detected and analyzed by FACS (FACS Calibur, purchased from BD). Data analysis is performed by using the software (CellQuest) to obtain the mean fluorescence intensity (MFI) of the cells. Data is further analyzed by using the software (GraphPad Prism5) to perform data fitting and calculate EC50.

[13] = biological target: T12, human EGFRvIII-hFc protein; test: ELISA, plate coated with human EGFRvIII-hFc, HRP secondary antibody, absorbance at 450 nm
Description: The purified immunogen A (EGFRvIII-hFc) obtained in example 1 (for the preparation method, see step (I) in example 1) is diluted with PBS to a final concentration of 1.0 μg/mL, and then added to a 96-well ELISA plate at 100 μl/well. The plate is sealed with a plastic film and incubated at 4° C. overnight. The next day, the plate is washed twice with a plate washing solution [PBS+0.01% (v/v) Tween20], and added with a blocking solution [PBS+0.01% (v/v) Tween20+1% (w/w) BSA] for blocking 2 hours at room temperature. […] The plate is incubated for 2 hours at 37° C., and then washed 3 times with the plate washing solution [PBS+0.01% (v/v) Tween20]. The plate is added with an HRP (horseradish peroxidase) labeled secondary antibody (purchased from Sigma), incubated at 37° C. for 2 hours, and then washed 3 times with the plate washing solution [PBS+0.01% (v/v) Tween20]. The plate is added with 100 μl of TMB substrate/well, incubated for 30 minutes at room temperature, and then added with 100 μl of stopping solution (1.0N HCl)/well. A450 nm value is read using an ELISA plate reader (SpectraMax 384plus, purchased from Molecular Device), and the results are shown in FIG. 11 and table 19.

pep01 = biological target: T14, pep01; test: peptide dot matrix ELISA
T14 peptide: LEEKKGNYVVTDHGSCK(Biotin)

pep04 [14] = biological target: T15, pep04; test: peptide dot matrix ELISA
T15 peptide: KKGNYVVTDHGSCVRAK(Biotin)

pep08 = biological target: T16, pep08 (cysteine pairing not given here); test: peptide dot matrix ELISA
T16 peptide: YVVTDHGSCVRACGADK(Biotin)

pep09 = biological target: T17, pep09 (cysteine pairing not given here); test: peptide dot matrix ELISA
T17 peptide: VVTDHGSCVRACGADSK(Biotin)

pep10 = biological target: T18, pep10 (cysteine pairing not given here); test: peptide dot matrix ELISA
T18 peptide: VTDHGSCVRACGADSYK(Biotin)

pep11 = biological target: T19, pep11 (cysteine pairing not given here); test: peptide dot matrix ELISA
T19 peptide: TDHGSCVRACGADSYEK(Biotin)

pep16 = biological target: T20, pep16 (cysteine pairing not given here); test: peptide dot matrix ELISA
T20 peptide: CVRACGADSYEMEEDGK(Biotin)

pep17 = biological target: T21, pep17; test: peptide dot matrix ELISA
T21 peptide: VRACGADSYEMEEDGVK(Biotin)

pep18 = biological target: T22, pep18; test: peptide dot matrix ELISA
T22 peptide: RACGADSYEMEEDGVRK(Biotin)

pep25 = biological target: T23, pep25 (cysteine pairing not given here); test: peptide dot matrix ELISA
T23 peptide: YEMEEDGVRKCKKCEGK(Biotin)

pep26 = biological target: T24, pep26 (cysteine pairing not given here); test: peptide dot matrix ELISA
T24 peptide: EMEEDGVRKCKKCEGPK(Biotin)

pep28 = biological target: T25, pep28 (cysteine pairing not given here); test: peptide dot matrix ELISA
T25 peptide: EEDGVRKCKKCEGPCRK(Biotin)

pep30 = biological target: T26, pep30 (cysteine pairing not given here); test: peptide dot matrix ELISA
T26 peptide: DGVRKCKKCEGPCRKVK(Biotin)

pep31 = biological target: T27, pep31 (cysteine pairing not given here); test: peptide dot matrix ELISA
T27 peptide: GVRKCKKCEGPCRKVCK(Biotin)

pep33 = biological target: T28, pep33 (cysteine pairing not given here); test: peptide dot matrix ELISA
T28 peptide: RKCKKCEGPCRKVCNGK(Biotin)

pep34 = biological target: T29, pep34 (cysteine pairing not given here); test: peptide dot matrix ELISA
T29 peptide: KCKKCEGPCRKVCNGIK(Biotin)

pep35 = biological target: T30, pep35 (cysteine pairing not given here); test: peptide dot matrix ELISA
T30 peptide: CKKCEGPCRKVCNGIGK(Biotin)

Molecule: hIgG (antibody)
- ELISA signal (pep05): 0.05 and 0.06
- ELISA signal (pep06): 0.07 and 0.05
- ELISA signal (pep07): 0.05
- ELISA signal (pep13): 0.06
- ELISA signal (pep14): 0.07
- ELISA signal (pep15): 0.05 and 0.06
- ELISA signal (pep20): 0.12 and 0.1
- ELISA signal (pep21): 0.06
- ELISA signal (pep04 [1]): 0.05 and 0.06
- ELISA signal (pep19): 0.05
- Maximum mean fluorescence intensity [2]: 144 MFI
- MFI [3]: 388 MFI
- Maximum OD450 value [4]: 0.17 OD450
- Maximum OD450 value [5]: 0.1 OD450
- Maximum mean fluorescence intensity [6]: 133 MFI
- Maximum mean fluorescence intensity [7]: 0 MFI
- MFI [8]: 219 MFI

B1: c75G7C6-3 (antibody, human IgG1, V domains shown)
VH: EVQLQQSGPELVKPGASVKIPCKASGYTFTDYNMDWVKQSHGKSLEWIGDINPNNGDTIYNQKFKGKATLTVDKSSSTAYMELRSLTSEDTAVYYCARGDYEGYYPVYYAMDYWGQGTSVTVSS
VL: ENVLTQSPAIMSASPGEKVTMTCRASSSVSSSYLHWYQQKSGASPKLWIFSTSNLAAGVPARFSGSGSGTSYSLTVSSVEAEDAATYYCQQYSGYPLTFGAGTKLELK
notes: chimeric, human IgG1 / kappa; DG of heavy chain CDR3 mutated to EG; also called DG/EG mutant
- fold decrease in binding ability compared to the wild-type chimeric antibody c75G7C6 [9]: 3 fold
- fold decrease in binding ability compared to the wild-type chimeric antibody c75G7C6 [10]: 22 fold
- fold decrease in binding ability compared to the wild-type chimeric antibody c75G7C6 [11]: 2.5 fold

B2: Chimeric antibody 63A10 (antibody, human IgG1, V domains shown)
VH: QVQLQQSGAELARPGASVKMSCKASGYTFISFTMHWVKQRPGQGLEWIGYINPNSGYTKYNQKFKDKATLTAGQSSSTAYMQLSSLTSEDSAVYYCTRGGGRGFAYWGQGTLVTVSA
VL: DILMTQSPSSMSVSLGDTVTITCHASQDINSNIGWLQQKPGKSFKALIYHGTNLEDGVPSRFSGSGSGADYSLTISSLESEDFADYYCVQYAQFPFTFGSGTKLEIK
notes: also called c63A10A7
- EC50 (read off the curve) [12]: ~2 nM
- EC50 (read off the curve) [13]: ~0.03 nM

B3: Chimeric antibody 63A10 (antibody, V domains shown)
VH: B2 VH
VL: B2 VL
notes: also called c63A10A7
- ELISA signal (pep01): 0.05
- ELISA signal (pep04 [14]): 0.06
- ELISA signal (pep08): 0.05
- ELISA signal (pep09): 0.05
- ELISA signal (pep10): 0.05
- ELISA signal (pep11): 0.05
- ELISA signal (pep16): 0.05
- ELISA signal (pep17): 0.05
- ELISA signal (pep18): 0.05
- ELISA signal (pep25): 0.06
- ELISA signal (pep26): 0.33
- ELISA signal (pep28): 0.06
- ELISA signal (pep30): 0.06
- ELISA signal (pep31): 0.06
- ELISA signal (pep33): 0.07
- ELISA signal (pep34): 0.07
- ELISA signal (pep35): 0.07
